Source: a protein production outcome set (Wang et al. 2014)

Test: label from the status in PepcDB records
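Further: failed if final PepcDB status was selected cloned or expressed and not failed if soluble or beyond.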

Row | Sequence | protein production
1 | MANPLYHKHIISINDLSRDELELVLRTAASLKKTPQPELLKHKVIASCFFEASTRTRLSFETSIHRLGASVVGFSDSSNTSLGKKGETLADTMSVISTYVDAIVMRHPQEGASRLAAQFSGNVPIVNAGDGANQHPTQTLLDLFTIQETQGRLDNINIAMVGDLKYGRTVHSLTQALAKFNGNHFFFIAPDALAMPAYILQMLEEKEIEYSLHESLEEVVPELDILYMTRVQKERLDPSEYANVKAQFILRSSDLTGARDNLKVLHPLPRIDEITTDVDKTPYAYYFQQAGNGIFARQALLALVLNAELAL | not failed
2 | MANPNEAYRHYMKKLSYETDIADLSIDIKKGYEGIIVVDVRDAEAYKECHIPTAISIPGNKINEDTTKRLSKEKVIITYCWGPACNGATKAAAKFAQLGFRVKELIGGIEYWRKENGEVEGTLGAKADLFWNMKKESLEHHHHHH | not failed
3 | MANSETSLQARLWKTLSQSPDVRLWRNNVGTCKAADGRFVRFGLCPGSSDLIGLTRVTITPDMVGQTIALFTAIEVKTPTGRVTPEQQSFIDFVQRSGGRAGVARSMQDANKIISGEGHVLEHHHHHH | failed
4 | MANSITADEIREQFSQAMSAMYQQEVPQYGTLLELVADVNLAVLENNPQLHEKMVNADELARLNVERHGAIRVGTAQELATLRRMFAIMGMYPVSYYDLSQAGVPVHSTAFRPIDDASLARNPFRVFTSLLRLELIENEILRQKAAEILRQRDIFTPRCRQLLEEYEQQGGFNETQAQEFVQEALETFRWHQSATVDEETYRALHNEHRLIADVVCFPGCHINHLTPRTLDIDRVQSMMPECGIEPKILIEGPPRREVPILLRQTSFKALEETVLFAGQKQGTHTARFGEIEQRGVALTPKGRQLYDDLLRNAGTGQDNLTHQMHLQETFRTFPDSEFLMRQQGLAWFRYRLTPSGEAHRQAIHPGDDPQPLIERGWVVAQPITYEDFLPVSAAGIFQSNLGNETQTRSHGNASREAFEQALGCPVLDEFQLYQEAEERSKRRCGLLLEHHHHHH | not failed
5 | MANVKLLLPYILKWEGGFVHDPADAGGATNKGVTIATWKRVGYDKDGDGDIDVEDLKLLTDDDVLNRVLKPFYWDRWKADLIESQKVANILVDWVWGSGKYGIVIPQRILGVQADGIVGNKTLQAVNSADPDELFESIFDARREFLEDITARSIKKYEDSIGRKATERELLRHTNKRFLRGWLNRLEDIRKL | not failed
6 | MANYEFSQVSGDRPGCRLSRKAQIGLGVGLLVLIALVVGIVVILLRPRSLLVWTGEPTTKHFSDIFLGRCLIYTQILRPEMRDQNCQEILSTFKGAFVSKNPCDITREDYAPLVKLVTQTIPCDKTLFWSKSKHLAHQYTWIQGKMFTLEDTLLGYIADDLRWCGDPSTSDMNYVSCPHWSENCPNNPITMFWKVISQKFAEDACGVVQVMLDGSLREPFYKDSTFGSVEVFSLDPNKVHKLQAWVMHDIEGASSNACSSSSLNELKMIVQKRNMIFACVDNYRPARFLQCVKNPEHPSCRLNT | not failed
7 | MAPAEPACRCAAAPCSSMIGIDRGSAARLILFRKTFYNIEHTFGRLIVASDLRGLAKYVEPGIRLAVPVDYAGVSMAMTRPIIERKAGNLHLICVPTGGLQVDQLIGSGLVRTVETSAVTLGEAGGAPRFNAAVKDGSIKLMDATCPAIHAGLMAAQKGSPFMPMRGLIGSDILRHRKDWRVIDNPLSDGGDPVVLIPAIKPDVTIFHAPMADRFGNVWIGRRRELAAMAYASATTLVTVERIVEESLLANEITAAGVLPAIYVTEVALAPKGAWPYGLWGEYQTDTQELVRYARAARTAEGFADYMATTQMEPA | failed
8 | MAPDASTALAAREKVQQILNAACTGNLEFLKNVAKQLDEGKDLTKTVESIKDANKRGALHFAAREGQTEICRYLLEELKLNADAKDETGDTPLVHAARQGQIETVKYLLEQGADPNIASELGATALHHAAGTGEIELLKELLSRGVPVDSESESGTPLIWAAGHDQKNAVEVLLEHNANPNAETEDNITPLLSAVAAGSLSCLELLVKAGAKANVFAGGATPLHIAADIGNLELINCLLKAGADPNQKDEEGNRPLEVAAARDNRKVVEILFPLTTKPETVSDWTVDGILAHMESNKEQEENSNKAKSQETGIKKDLPVVSPEAKAKAAEAKARGQDAFHRKDFQMAIDAYTQAIDFDPTDHTLFSNRSLCWLRLGQAEHALSDAKACRELNPDWPKGCFREGAALRLLQRFDEAANAFYEGVLLSPESKELIDAFREAVDAGRKFHGKGEVKAKS | failed
9 | MAPRYDTLFYDGSCPLCAREIRTLRRLQTGNLIFADIHEQNPSNQQLPSREQLLRRLHLMSWNGEWVTGLHANVRAWSHTRFGWLFKPLLWPVIHPIASRIYETWADKRYGRKYACAMGHENSCPPGT | failed
10 | MAPSCLKMAHMRLLLTSFGHDHIRDFVRGTVAYIPDATRLFADSPEAAPFMETERNMLREHGLSIRELPISTSTPEEVDRVLGEVDGVYVAGGETFDLMWLLRSTGNDEVLIKHVRAGLPYIGTSAGAVIAGPSIEPISFLDSPDVAPNLSDYSGLGLCEHVVVPHAGGTIPQFPIDVFAETVRTYGAEFPLVLLKDGQALLIDDHGVHLILEHHHHHH | not failed
11 | MAPTIRLPFRRTLALLASATILAQTGMSGIAFAQTSPETAVPGVAAPVPAAPTPPASTPQQTPPVQTVVPTNGPASVADLAEGLLDAVVNISTSQNVKDDEGVGPAPRAPDGSPFQEFFNDFFNKKQGNKGPNHNVSSLGSGFVIDPAGYIVTNNHVIEGADDIEVNFANGSKLKAKLIGTDTKTDLSVLKVEPKTPLKSVKFGDSSEMRIGDWVMAIGNPFGFGGSVTVGIISGRGRNINAGPYDNFIQTDAAINKGNSGGPLFNMKGEVIGINTAIISPSGGSIGIGFSVPSELASGVVEQLRQYGETRRGWLGVRIQPVTDDIADSLGLDTAKGALVAGVIKGGPVDDGSIKAGDVILKFDGKTVNEMRDLPRVVAESTVGKEVDVVVLRDGKEQTVKVKLGRLEDSDQAASGDASPDGSQDGVITPDPDENDDMDQPDTGDQVAPAPGAPAPDQHQQGQVSPDAATPKNVLGLSLSLLSPETRKAFGIAESVDGVVVTEVEPGSASAEKGLKPGDVIVEVAQEFMKSPDAVAAKVKSLKQEGRRNAQLMIASANGDLRFVAVPME | failed
12 | MAPTLAGPNVAGDCFPGASGCIVLPMSGSLSLHIAAFLALLPAAFTPLRQTPGRDGLFWGTLGVAIIGALVVSIVPSLRQGMWSTSFSSALWVSIAATLLLFSELCFRHQAAWRLTPVLMPYLIALGAMATIWEGAEGAPLADHAPAFWTVLHIVIAVLTYGMLTLGAVAALAGFLQERALKARRPTSLTRRLPAAAEADRLSWILLYTSEWVLGAGLLTGMAVEYLETGAILQPDHKSMLSSLAFLVIGGLILARSRWGVRGRVGARVVLLAYLLLTLAFPGVKFVSDVLL | failed
13 | MAPTLQGQWIKVGQKGGTGPGPRSSHGIAAVGDKLYSFGGELTPNKHIDKDLYVFDFNTQTWSIAQPKGDAPTVSCLGVRMVAVGTKIYIFGGRDENRNFENFRSYDTVTSEWTFLTKLDEVGGPEARTFHSMASDENHVYVFGGVSKGGTMNTPTRFRTIEAYNIADGKWAQLPDPGDNFEKRGGAGFAVVQGKIWVVYGFATSIVPGGKDDYESNAVQFYDPASKKWTEVETTGAKPSARSVFAHAVVGKYIIIFAGEVWPDLNGHYGPGTLSNEGYALDTETLVWEKLGEEGAPAIPRGWTAYTAATVDGKNGLLMHGGKLPTNERTDDLYFYAVNSA | failed
14 | MAQATSPIELALTTGRGHQAEVRLAKPDGSYLPVIASCNPLNRSDGGIVLTLNDISELRSAERAVSDRAEELATLNRELKETSQATTRLVKLGELLQACVTFHEAFSVVGSAMPDFFGGLSGTVHLTSASRNLVEEMAHWGAVRSSVGQFAPEDCWALRRGQEHVAGPGMLTPRCNHITENGGRGYVCMPLAAQGETLGIVHLCEPDAADRPDWLTERQQILRGVVDTLALALANLRLRETLRQQSIRDPNTGLYNRRYLEETSSRELRRMERSGQPLAMIMLDVDHFKQFNDTFGHEAGDLVLKQVAATLLDHARESDVVSRYGGEEFALMMPGTSLADAAERAEALRKAIKQLHLTHRGRTLGTITASFGVSAFPELGASWVEIVNAADRSLYQAKADGRDRVVAGLGRADPQWDLSTASQSVA | failed
15 | MAQEEAGRLPQVLARVGTSHGITDLACKLRFYDDWAPEYDQDVAALKYRAPRLAVDCLSQALQGPPHDALILDVACGTGLVAVELQARGFLQVQGVDGSPEMLKQARARGLYHHLSLCTLGQEPLPYPKGTFDAVIIVGALSEGQVPCSAIPELLRVTKPGGLVCLTTRTNPSNLPYKEALEAALDSLEQAGAWERLVTQPVDHWELATSEQESGLATCANDGFISGVIYLYRKQETAQGERGRLSIQPLIDH | failed
16 | MAQFPTPFGGSLDIWAITVEERAKHDQQFHSLKPISGFITGDQARNFFFQSGLPQPVLAQIWALADMNNDGRMDQVEFSIAMKLIKLKLQGYQLPSALPPVMKQQPVAISSAPPFGMGGIASMPPLTAVAPVPMGSIPVVGMSPTLVSSVPTAAVPPLANGAPPVIQPLPAFAHPAATLPK | failed
17 | MAQGNPLTPEEIELLHAGDEENDNTDTLMVIRVPNDGSSATAISIPRDTYVHDENVGNLKINGVYRAYKNRKASELVNSGESDQKHIDELSKEAGRKALISSISDLTGVTVDHYAEVGLLGFVLLTNAVGGVDVCLNNDVYDEFSGADFKAGQQTLRDGQALAFVRQRHGLPRGDLDRIVRQQAFMASLVAKVLSSGTLTNPSKLSDLGEAVSRSVVIDKNWDVMSFANQLQNLAGGNVKFNTIPVTSIDGVGDYGESVVTVDKNQVHQFFDRLLNGNNGEETPTSDSEAPAENPHTSTTIDVLNATSTTGLASQVAGHLSAKHYTIGNIGNALEGMYHESQIVAADPNNEAVKAIAAELGGLPITQRNDLEHHHHHH | failed
18 | MAQKMTGALVFDERTDRYDIRFDLNSYYGGLHCGECFDVFVRGKWKPTRIEYGDNWYLVGIRAEDLNGLRVRI | failed
19 | MAQPKFVVAEIVEMEDHPDSDHLHICKVNVGFADPVQIVCGAPNAALGLKTVAALPGAMMPNGSLIFPGALRGVQSYGMLCSALEHHHHHH | failed
20 | MAQPSTTYKFELNLTDLDRNVYESVKQTIARHPSETEERMAVRLLAYALWYNENLSFGRGLSDVDEPALWEKSLDDRVLHWIEVGQPDADRLTWCSRRTERTSLLAYGSLRVWEGKVVSAVKNLKNLSIAAVPQEVLETLATDMPRSIKWDVMISEGTVFVTDDRGQHEVQLQWLLGERG | not failed
21 | MAQQFIDIGANLTDDNYFGNYHGKHYHEEDIDVVLQRAERNGLSHIIITSGCLNDFKKAIEIINKYQNLTNIKLVTTIGVHPTRTNELKQEGYLDELLLLCEKNIDKVVAIGEIGLDYERLQFSDKETQLSGYRTLSILHQKYPYLPFFFHCRKSWSDLCQLNKELGYNGCKGVVHCFDGTEEEMNQILNEGWDIGVTGNSLQSIELLNVMKQIPIERLHIETDCPYCGIKKTSAGFKYLKEKDFGVKVEKYQRNKYVQRRNEPSNIIDIAIIMSSIKHISLFEFVNKVYSNSMNMYFPTMN | not failed
22 | MAQQWSLQRLAGRHPQDSYEDSTQSSIFTYTNSNSTRGPFEGPNYHIAPRWVYHLTSVWMIFVVIASVFTNGLVLAATMKFKKLRHPLNWILVNLAVADLAETVIASTISVVNQVYGYFVLGHPMCVLEGYTVSLCGITGLWSLAIISWERWMVVCKPFGNVRFDAKLAIVGIAFSWIWAAVWTAPPIFGWSRYWPHGLKTSCGPDVFSGSSYPGVQSYMIVLMVTCCITPLSIIVLCYLQVWLAIRAVAKQQKESESTQKAEKEVTRMVVVMVLAFCFCWGPYAFFACFAAANPGYPFHPLMAALPAFFAKSATIYNPVIYVFMNRQFRNCILQLFGKKVDDGSELSSASKTEVSSVSSVSPA | failed
